Reference: paper PMC13506345, “Loss of cellular RNA homeostasis contributes to MDA5 activation during virus infection” (Nature Immunology, 2026)
Read-outs that look alike come from different tables or passages of the source.

Tests used:
[1] = molecular target: T1, melanoma differentiation-associated protein 5 (MDA5) (Homo sapiens (THP1 cells, endogenous), UniProt Q9BYX4); assay: immunoprecipitation; first IP (IP1): antibody A coupled to Dynabeads, incubated with THP1 cell lysate (native MDA5) 2 h at 4 °C, high-salt washes; IP analysed by western blot for MDA5; conditions: one partner purified
T1 construct: MDA5 (melanoma differentiation-associated protein 5), endogenous in human monocytic THP1 cells; printed MW 135 kDa; native in the cell lysate for the first IP, denatured (6 M urea, 1% SDS eluate of the first IP) for the second IP; The same endogenous protein stood native (IP1) and denatured (IP2); the two states are told apart by the assays; also called endogenous MDA5; native MDA5; source: …
T1 sequence (Q9BYX4 whole entry): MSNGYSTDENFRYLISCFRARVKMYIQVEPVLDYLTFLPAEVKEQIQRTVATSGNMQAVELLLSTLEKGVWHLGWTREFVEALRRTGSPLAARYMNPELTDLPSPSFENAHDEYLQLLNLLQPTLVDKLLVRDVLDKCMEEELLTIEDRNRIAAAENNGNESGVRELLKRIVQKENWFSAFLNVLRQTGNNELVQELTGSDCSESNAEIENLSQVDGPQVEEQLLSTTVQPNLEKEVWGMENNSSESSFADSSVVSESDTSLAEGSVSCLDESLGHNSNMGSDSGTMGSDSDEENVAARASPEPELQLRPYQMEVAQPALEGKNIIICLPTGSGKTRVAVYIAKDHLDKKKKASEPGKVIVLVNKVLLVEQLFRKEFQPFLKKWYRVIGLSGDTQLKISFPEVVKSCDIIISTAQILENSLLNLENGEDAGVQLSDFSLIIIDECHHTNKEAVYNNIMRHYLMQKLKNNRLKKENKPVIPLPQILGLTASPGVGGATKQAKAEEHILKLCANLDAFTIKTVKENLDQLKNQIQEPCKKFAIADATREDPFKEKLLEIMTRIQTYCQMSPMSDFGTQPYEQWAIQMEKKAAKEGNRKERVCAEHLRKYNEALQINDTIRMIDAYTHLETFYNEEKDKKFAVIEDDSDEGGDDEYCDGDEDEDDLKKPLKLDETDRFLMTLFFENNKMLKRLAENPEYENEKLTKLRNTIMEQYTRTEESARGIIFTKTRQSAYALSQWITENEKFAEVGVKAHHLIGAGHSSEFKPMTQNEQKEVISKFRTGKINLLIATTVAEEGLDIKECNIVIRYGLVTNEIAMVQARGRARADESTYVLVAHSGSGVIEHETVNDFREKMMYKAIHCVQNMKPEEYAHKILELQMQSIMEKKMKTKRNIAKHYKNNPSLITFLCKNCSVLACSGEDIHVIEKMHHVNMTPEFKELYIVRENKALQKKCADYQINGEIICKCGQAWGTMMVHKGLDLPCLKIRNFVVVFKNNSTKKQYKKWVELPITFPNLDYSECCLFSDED

[2] = molecular target: T1, melanoma differentiation-associated …; assay: immunoprecipitation; second IP (IP2): MDA5 eluted from IP1 with urea cracking buffer (6 M urea, 1% SDS, 65 °C), neutralised with T-20 IP buffer, incubated with antibody B on Protein G Dynabeads 2 h at 4 °C; IP analysed by western blot for MDA5; conditions: both partners purified
[3] = molecular target: T1, melanoma differentiation-associated …

B1: anti-MDA5 monoclonal antibody A (clone 16) (antibody, V domains shown)
VH: QVQLQQSGPDLVRPGTSVKMSCKAAGYTFTNSWIGWLKQRPGHGLEWIGDIYPGGGDTNSNENFKGKATLTADTSSSTAYMQLSSLTSEDSAVYYCARSTVIMRGYFDVWGAGTMVTVSS
VL: DIQMTQSPASLSASVGETVTITCRASGNIHNFLAWYQQKQGKSPQLLVYNAKTLADGVPSRFSGSGSGTQYSLKINSLQPEDFGSYYCQHFWSTPLTFGAGTKLELK
notes: Monoclonal antibody raised against MDA5 (generated by C. Song and B. Jin); covalently coupled to Dynabeads for the IP; also called Ab A; monoclonal antibody 16; source: hybridoma cells grown in bioreactors (CELLline)
B1: binds [1].

B2: anti-MDA5 monoclonal antibody B (clone 22) (antibody, V domains shown)
VH: QVQLQQSGPELVKPGASVKMSCKASGYTFTDYVISWVKQRTGQGLEWIGEIYPGSGNTFYNEKFKGKATLTADKSSNTAYMQLSSLTSEDSAVYFCARSGDYDLDYWGQGTSVTVSS
VL: EIVLTQSPTTMAASPGEKITITCSASSSISSNYLHWYQQKPGFSPKLLIYRTSNLASGVPARFSGSGSGTSYSLTIGTMEAEDVATYYCQQGGSIPLTFGAGTKLELK
notes: Hybridoma was non-recoverable; In some radiolabeling experiments pooled ascites fluids from several hybridoma clones including antibody B were used instead; Preincubated with Protein G Dynabeads for the IP; also called Ab B; monoclonal antibody 22
B2: binds [2].

B3: mAb 17 (antibody, V domains shown)
VH: QVQLQQSGAELVRPGASVTLSCKASGYTFADYEIHWVRQTPVHGLEWIGAIGPETGNTAYNQKFKGKATLTVDKSSSTVYMDLRSLTSEDSAVYYCTRGRILDWGQGTLVTVSA
VL: DVVMTQTPLSLPVSLGDQASISCRSSQSLVHSNGNTYLHWYLQKPGQSPKLLIYKVSKRFSGVPDRFSGSGSGTDFTLKISRVEAEDLGVYFCSQSTHIPYTFGGGTKLEIK
B3: binds [3].
